We go through 2 molecules from patent publication US6570069B1, “Nucleic acids encoding plant inhibitors of apoptosis and transgenic cells and plants expressing them” (priority 2000, dated 2003).

Experiment [1] concerns Bax-induced apoptosis in HEK293 cells. Description: Bax-induced apoptosis in HEK293 cells (co-transfection, DAPI nuclear morphology). It is filed as cell-based, human. The settings on record: IAP plasmid co-transfected with Bax into 293 cells; % apoptosis 24-36 hours later. How it is done:
HEK293 and 293T cells were maintained in DMEM (Irvine Scientific) supplemented with 10% fetal bovine serum, 1 mM L-glutamine and antibiotics. 293 cells (10^6) were co-transfected using Superfect with 0.1 μg Green Fluoresence Protein (GFP) marker plasmid pEGFP (Clontech), 0.25 ug of either pcDNA3-Bax or pcDNA3-Fas, and 1.5 μg of either pcDNA3myc-SfIAP or pcDNA3myc-CpIAP. Alternatively, cells were co-transfected with 0.35 μg pcDNA3-caspase-9-Flag and 2.1 μg of either SfIAP or CpIAP. […] In some cases, lysates were prepared from transfected cells, normalized for total protein content, and analyzed by SDS-PAGE/immunoblotting as described (Deveraux, Q., et al., (1997) supra; Deveraux, Q. L., et al. (1998) supra; Roy, N. et al. (1997) supra; Takahashi, R., et al., (1998), supra.).
Baculoviral IAPs have been reported to protect mammalian cells from some apoptotic stimuli (Hawkins, C. J. et al., (1996) Proc. Natl. Acad. Sci. USA 93, 13786-13790; Hawkins, C. et al., (1998) Cell Death and Differentiation 5, 569-576; Uren, A. G. et al., (1996) Proc. Natl. Acad. Sci. USA 93, 4974-4978). Tests were performed to determine whether SfIAP is also capable of functioning as an apoptosis suppressor in a mammalian cell context. […]
Plasmids encoding various IAPs were co-transfected with Bax or Fas into 293 cells and % apoptosis was determined 24-36 hours later.

The next experiment addresses T1, caspase-3 (Homo sapiens, UniProt P42574).
T1 construct: His6 (C); made in house
T1 sequence (P42574 29-175 limits assumed): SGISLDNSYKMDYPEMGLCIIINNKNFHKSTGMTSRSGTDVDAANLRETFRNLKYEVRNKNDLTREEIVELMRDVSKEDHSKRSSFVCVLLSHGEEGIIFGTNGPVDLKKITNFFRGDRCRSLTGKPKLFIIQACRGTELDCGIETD
T1 sequence (P42574 176-277 limits assumed): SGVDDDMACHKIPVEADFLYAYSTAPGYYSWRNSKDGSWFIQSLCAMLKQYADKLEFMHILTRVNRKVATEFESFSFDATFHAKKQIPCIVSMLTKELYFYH
Description: Inhibition of recombinant purified caspase-3. Particulars: in vitro. It is filed as biochemical, mammalian. How it is done: pGEX4T-1-SfIAP and pGEX4T-1 -CpIAP plasmids were introduced into E. coli strain BL21 (DE3) containing the plasmid pT-Trx. GST fusion proteins were obtained by induction with 0.05 mM IPTG at 25° C. for 8 hours, then purified using glutathione-Sepharose, essentially as described (Deveraux, Q., Welsh, K. & Reed, J. Methods of Enzymology in press). Caspases-3, and -7, containing C-terminal His6-tags, and caspase-8 containing an N-terminal His6-tag were purified as described previously (Stennicke, H. R. & Salvesen, G. S. (I1997) J. Biol. Chem. 272, 25719-25723; Stennicke, H., et al., (1998) J. Biol. Chem. 273, 27084-27090; Stennicke, H., et al., (1999) J. Biol. Chem. 274, 8359-8362). Caspase-9 lacking the CARD domain (ΔCARD-caspase-9) was constructed by truncating the cDNA and introducing a start codon substituting Val139. […] Concentrations of purified enzymes were determined from absorbance at 280 nm based on the molar absorption coefficients: caspase-3 (A280=26,000M−1 cm−1), caspase-7 (A280=24,500 M−1 cm−1), caspase-9 (A280=30,010M−1 cm−1).
Caspase activity was assayed by release of 7-amino-4-trifluoromethyl-coumarin (AFC) from Ac-DEVD or Ac-LEHD-containing synthetic peptides (Calbiochem) using continuous-reading instuments as described (Quan, L. T. et al., (1995) J. Biol. Chem. 270:10377-10379).

B1: CpIAP: baculoviral (CpGV) inhibitor of apoptosis protein; complete ORF expressed myc-tagged or as GST-fusion (protein)
chain: MSDLRLEEVRLNTFEKWPVSFLSPETMAKNGFYYLGRSDEVRCAFCKVEIMRWKEGEDPAADHKKWAPQCPFVKGIDVCGSIVTTNNIQNTTTHDTIIGPAHPKYAHEAARVKSFHNWPRCMKQRPEQMADAGFFYTGYGDNTKCFYCDGGLKDWEPEDVPWEQHVRWFDRCAYVQLVKGRDYVQKVITEACVLPGENTTVSTAAPVSEPIPETKIEKEPQVEDSKLCKICYVEECIVCFVPCGHVVACAKCALSVDKCPMCRKIVTSVLKVYFS
modifications: left off: a dimerising Fc or GST
notes: complete ORF expressed myc-tagged or as GST-fusion
For B1, the “suppression of Bax-induced apoptosis” value in experiment [1] is “inhibited Bax-induced apoptosis”. Further, the “inhibition of caspase-3” value with caspase-3 is listed as “nor inhibited”.

B2: SfIAP: cellular IAP cloned from Spodoptera frugiperda, protein of 377 amino acids (SEQ ID NO:3); GST-fusion when recombinant (protein, listed as Spodoptera frugiperda)
chain: MWSCSLPCWNTKKSGLQMDITKVASNGSSSTLTLFKSGSLEAKIRPLAPLMLPTPSYDSNAGSPSLSPSTPCSSSSFSIDKTDNHDTFGFSADTVDMRKEDERMKTFEKWPVSFLSGEQLARNGFYYLGRRDEARCAFCKVEIMRWVEGDDPAKDHQRWAPQCPFVRKLNGTAAADTGSSGQDECGARAAPSGTSPPRMAGPVHPRYASEAARLRSFKDWPRCMRQKPEELAEAGFFYTGQGDKTKCFYCDGGLKDWENHDVPWEQHARWFDRCAYVQLVKGREYVQKVISEACEVSASEAERDVAPARTAEPSPPAEAPENSVDDSKLCKICYAEERNVCFVPCGHVVACAKCALAADKCPMCRRTFQNAVRLYFS
modifications: GST fusion when recombinant; fall armyworm inhibitor of apoptosis protein (SfIAP)
Take B2: the “suppression of Bax-induced apoptosis” value in experiment [1] is on record as “inhibited Bax-induced apoptosis”. In addition, the “inhibition of caspase-3” value in the experiment with caspase-3 is on record as “nor inhibited”.
